The values below come from publication doi:10.1101/2023.08.08.549832.

Assay in all cases: FRET or BRET
(BRET reads energy transfer from a luciferase to a nearby fluorophore.)

The target in experiment [1] is PTCH1-eGFP (enhanced green fluorescent protein-tagged human PTCH1) (human) (UniProt Q13635).
In experiment [2] the target is PTCH2-eGFP (not stated (printed entry Q9Y6C5 is human PTCH2)) (UniProt Q9Y6C5).
In experiment [3] the target is PTCH1-eGFP (enhanced green fluorescent protein-tagged human PTCH1) (human) (UniProt Q13635). The source holds these as a separate data set.

On to “PTCH1-mCherry (from UniProt Q13635 1-1447) (receptor)”, for which the net increase in GFP signal after mCherry photobleaching in experiment [1] was greater than 10%. The same molecule displayed a magnitude of GFP signal change against PTCH1 homodimers in experiment [2] of 50 % lower.

B1: PTCH2-mCherry (receptor)
chain: MTRSPPLRELPPSYTPPARTAAPQILAGSLKAPLWLRAYFQGLLFSLGCGIQRHCGKVLFLGLLAFGALALGLRMAIIETNLEQLWVEVGSRVSQELHYTKEKLGEEAAYTSQMLIQTARQEGENILTPEALGLHLQAALTASKVQVSLYGKSWDLNKICYKSGVPLIENGMIERMIEKLFPCVILTPLDCFWEGAKLQGGSAYLPGRPDIQWTNLDPEQLLEELGPFASLEGFRELLDKAQVGQAYVGRPCLHPDDLHCPPSAPNHHSRQAPNVAHELSGGCHGFSHKFMHWQEELLLGGMARDPQGELLRAEALQSTFLLMSPRQLYEHFRGDYQTHDIGWSEEQASTVLQAWQRRFVQLAQEALPENASQQIHAFSSTTLDDILHAFSEVSAARVVGGYLLMLAYACVTMLRWDCAQSQGSVGLAGVLLVALAVASGLGLCALLGITFNAATTQVLPFLALGIGVDDVFLLAHAFTEALPGTPLQERMGECLQRTGTSVVLTSINNMAAFLMAALVPIPALRAFSLQAAIVVGCTFVAVMLVFPAILSLDLRRRHCQRLDVLCCFSSPCSAQVIQILPQELGDGTVPVGIAHLTATVQAFTHCEASSQHVVTILPPQAHLVPPPSDPLGSELFSPGGSTRDLLGQEEETRQKAACKSLPCARWNLAHFARYQFAPLLLQSHAKAIVLVLFGALLGLSLYGATLVQDGLALTDVVPRGTKEHAFLSAQLRYFSLYEVALVTQGGFDYAHSQRALFDLHQRFSSLKAVLPPPATQAPRTWLHYYRNWLQGIQAAFDQDWASGRITRHSYRNGSEDGALAYKLLIQTGDAQEPLDFSQLTTRKLVDREGLIPPELFYMGLTVWVSSDPLGLAASQANFYPPPPEWLHDKYDTTGENLRIPPAQPLEFAQFPFLLRGLQKTADFVEAIEGARAACAEAGQAGVHAYPSGSPFLFWEQYLGLRRCFLLAVCILLVCTFLVCALLLLNPWTAGLIVLVLAMMTVELFGIMGFLGIKLSAIPVVILVASVGIGVEFTVHVALGFLTTQGSRNLRAAHALEHTFAPVTDGAISTLLGLLMLAGSHFDFIVRYFFAALTVLTLLGLLHGLVLLPVLLSILGPPPEVIQMYKESPEILSPPAPQGGGLRWGASSSLPQSFARVTTSMTVAIHPPPLPGAYIHPAPDEPPWSPAATSSGNLSSRGPGPATG
In the case of B1, the magnitude of GFP signal change against PTCH1 homodimers in experiment [3] is 50 % lower.
